This is an account of results in publication PMC3333885 (Nucleic Acids Research, 2011).

Holding throughout (experiment): peptide array
Series [1] deals with T1, EcoP15I Res peptide 126-145 (spot B6) (UniProt Q5ZND2 126-145).
T1 chain: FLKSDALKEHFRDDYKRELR

The target of series [2] is T2, EcoP15I Res strongest DNA-binding region (array peptides) (UniProt Q5ZND2 637-670).
T2 chain: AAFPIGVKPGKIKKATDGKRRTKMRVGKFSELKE

The target in series [3] is T3, EcoP15I Res peptide 531-550 (spot F7) (UniProt Q5ZND2 531-550).
T3 chain: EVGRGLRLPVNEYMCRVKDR

B1: KW30-1/KW30-1c, specific dsDNA (dsDNA)
DNA 1: CGTAATCGTACCCAGCAGATATCGGTACCG
DNA 2: CGGTACCGATATCTGCTGGGTACGATTACG
Consider B1, for which the binding result is “no binding” in series [1], “binds” in series [2] and “no binding” in series [3].
